In patent US20140322220A1 (Bayer, published 2014):

T1: hFGFR2β-Fc (IIIb) (human, UniProt P21802 22-377, biotinylated with biotin-LC-NHS)
T1 construct: also called FGFR2-2β Fc (IIIb)
T1 chain: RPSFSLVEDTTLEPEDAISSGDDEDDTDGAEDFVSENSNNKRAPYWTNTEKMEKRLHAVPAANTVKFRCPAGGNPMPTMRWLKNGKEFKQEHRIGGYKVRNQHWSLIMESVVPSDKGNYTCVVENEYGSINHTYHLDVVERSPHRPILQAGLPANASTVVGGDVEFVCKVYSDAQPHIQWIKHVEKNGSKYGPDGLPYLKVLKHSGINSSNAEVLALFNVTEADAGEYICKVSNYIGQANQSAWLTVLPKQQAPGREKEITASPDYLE

T2: hFGFR2α-Fc (IIIb) (human, UniProt P21802 22-377, biotinylated with biotin-LC-NHS)
T2 construct: Bought, R&D Systems 663-FR, soluble Fc fusion
T2 chain: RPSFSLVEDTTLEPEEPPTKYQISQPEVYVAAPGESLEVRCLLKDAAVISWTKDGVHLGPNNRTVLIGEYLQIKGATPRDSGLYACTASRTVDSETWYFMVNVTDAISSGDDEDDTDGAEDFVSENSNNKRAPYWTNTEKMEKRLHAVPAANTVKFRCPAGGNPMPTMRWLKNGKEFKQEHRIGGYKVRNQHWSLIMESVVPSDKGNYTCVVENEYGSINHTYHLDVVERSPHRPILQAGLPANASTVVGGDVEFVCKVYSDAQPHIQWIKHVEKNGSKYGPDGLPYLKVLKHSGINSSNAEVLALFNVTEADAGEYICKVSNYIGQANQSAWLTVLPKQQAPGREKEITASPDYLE

T3: hFGFR4-Fc (human, UniProt P22455 22-369, biotinylated with biotin-LC-NHS)
T3 construct: Bought, R&D Systems, printed Cat. No. 685-MF
T3 sequence (looked up): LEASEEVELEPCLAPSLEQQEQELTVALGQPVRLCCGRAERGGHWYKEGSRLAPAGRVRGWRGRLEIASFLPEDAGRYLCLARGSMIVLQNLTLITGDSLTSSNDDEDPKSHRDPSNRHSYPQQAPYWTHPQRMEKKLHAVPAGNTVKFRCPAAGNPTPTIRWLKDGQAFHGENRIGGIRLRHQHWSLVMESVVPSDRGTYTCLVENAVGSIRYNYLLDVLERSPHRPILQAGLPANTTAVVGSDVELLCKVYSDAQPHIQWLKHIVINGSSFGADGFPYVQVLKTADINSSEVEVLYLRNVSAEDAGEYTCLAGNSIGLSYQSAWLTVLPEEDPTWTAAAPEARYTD

T4: hFGFR3-Fc (IIIb) (human, UniProt P22607-2 23-377, biotinylated with biotin-LC-NHS)
T4 construct: Bought, R&D Systems 1264-FR
T4 sequence (looked up): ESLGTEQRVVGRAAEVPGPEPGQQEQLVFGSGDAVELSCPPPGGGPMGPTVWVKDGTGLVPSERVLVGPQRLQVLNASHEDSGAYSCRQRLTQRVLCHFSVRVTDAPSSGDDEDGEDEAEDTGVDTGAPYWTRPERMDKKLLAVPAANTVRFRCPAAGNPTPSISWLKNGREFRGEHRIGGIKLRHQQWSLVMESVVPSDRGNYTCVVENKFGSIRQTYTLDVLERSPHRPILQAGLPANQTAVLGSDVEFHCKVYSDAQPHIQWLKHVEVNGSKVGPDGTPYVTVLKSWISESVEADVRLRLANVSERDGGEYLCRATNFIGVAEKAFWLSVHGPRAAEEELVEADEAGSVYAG

T5: hFGFR1β-Fc (IIIc) (human, UniProt P11362-14 22-285, limits assumed, biotinylated with biotin-LC-NHS)
T5 construct: Bought, R&D Systems 661-FR
T5 sequence (looked up): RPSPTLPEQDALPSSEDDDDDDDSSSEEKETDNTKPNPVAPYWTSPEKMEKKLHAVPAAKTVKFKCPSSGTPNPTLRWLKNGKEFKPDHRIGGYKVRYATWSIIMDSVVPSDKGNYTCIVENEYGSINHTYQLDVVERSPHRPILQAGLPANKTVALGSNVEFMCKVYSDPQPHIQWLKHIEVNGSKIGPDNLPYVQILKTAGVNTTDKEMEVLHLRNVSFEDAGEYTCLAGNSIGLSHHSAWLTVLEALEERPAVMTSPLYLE


Key:
hFGFR2β-Fc (IIIb) = biological target: T1, hFGFR2β-Fc (IIIb); assay: ELISA, 1 ug/ml Fab on coated antigen; grade of signal to background (+ 2-3, ++ 3-5, +++ >5)
Protocol: (§1) For the ELISA 96-well plates pre-coated with streptavidin (Pierce, 15500) were coated over night at 4° C. with 1 μg/ml biotinylated protein. Wells coated with biotinylated TRAIL-Fc served as a reference. The next day plates were washed 3 times with PBST, treated with blocking reagent, and washed again 3 times with PBST. 100 μl of purified Fabs (1 μg/ml) were added and incubated for 1 h at r.t. After washing 3 times with PBST, an anti-hIgG (Fab-specific) coupled to HRP (1:2500 diluted; Sigma; A 0293) was added and incubated for 1 h at Lt. Color reaction was developed by addition of 50 μl TMB (Invitrogen, 2023) and stopped after 5-15 min by adding 50 μl H₂SO₄ (Merck, 1120801000). Colorimetric reaction was recorded at […] in a plate reader (Tecan). Wells containing TRAIL-Fc were used as background values and the signal to background ratios were calculated as summarized in Table 4.

mFGFR2β-Fc (IIIb) = biological target: T6, mFGFR2β-Fc (IIIb) (murine, UniProt P21803-2 22-263, limits assumed, biotinylated with biotin-LC-NHS); assay: as above
T6 construct: Bought, R&D Systems 708-MF
T6 sequence (P21803 other isoform, or with tags, fused parts or gaps limits assumed): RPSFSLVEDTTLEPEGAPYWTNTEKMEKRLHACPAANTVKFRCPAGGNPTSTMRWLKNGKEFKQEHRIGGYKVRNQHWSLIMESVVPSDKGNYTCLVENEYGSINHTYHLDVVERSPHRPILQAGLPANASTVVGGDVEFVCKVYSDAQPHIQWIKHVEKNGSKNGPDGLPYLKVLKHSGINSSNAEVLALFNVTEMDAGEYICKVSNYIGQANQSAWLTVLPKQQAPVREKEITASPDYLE
Protocol: as §1

hFGFR2α-Fc (IIIb) = biological target: T2, hFGFR2α-Fc (IIIb); assay: as above
Protocol: as §1

hFGFR4-Fc = biological target: T3, hFGFR4-Fc; assay: ELISA on coated biotinylated Fc fusion
Protocol: as §1

hFGFR3-Fc (IIIb) = biological target: T4, hFGFR3-Fc (IIIb); assay: ELISA on coated biotinylated Fc fusion
Protocol: as §1

hFGFR1β-Fc (IIIc) = biological target: T5, hFGFR1β-Fc (IIIc); assay: ELISA on coated biotinylated Fc fusion
Protocol: as §1

Binder	ELISA signal to background ratio (hFGFR2β-Fc (IIIb))	ELISA signal to background ratio (mFGFR2β-Fc (IIIb))	ELISA signal to background ratio (hFGFR2α-Fc (IIIb))	binding result (hFGFR4-Fc)	binding result (hFGFR3-Fc (IIIb))	binding result (hFGFR1β-Fc (IIIc))
M017-B02 (soluble Fab) (Fab, V domains shown, Soluble Fab from E. coli, purified through its His-tag) VH: EVQLLESGGGLVQPGGSLRLSCAASGFTFRTSGMHWVRQAPGKGLEWVAVISYDGSNKYYADSVKGRFTISRDNSKNTLYLQMNSLRAEDTAVYYCARESPGYDFEYWGQGTLVTVSS VL: not shown	> 5 ratio	> 5 ratio	> 5 ratio	no binding	no binding	no binding
M054-D03 (soluble Fab) (Fab, V domains shown, Soluble Fab from E. coli, purified through its His-tag) VH: EVQLLESGGGLVQPGGSLRLSCAASGFTFSNYGMHWVRQAPGKGLEWVAVISYDGSNKYYADSVKGRFTISRDNSKNTLYLQMNSLRAEDTAVYYCAKETNDVPFDYWGQGTLVTVSS VL: not shown	2 to 3 ratio	3 to 5 ratio	3 to 5 ratio	no binding	no binding	no binding
M047-D08 (soluble Fab) (Fab, V domains shown, Soluble Fab from E. coli, purified through its His-tag) VH: EVQLLESGGGLVQPGGSLRLSCAASGFTFRTSGMHWVRQAPGKGLEWVAVISYDGSNKYYADSVKGRFTISRDNSKNTLYLQMNSLRAEDTAVYYCARESPGYDFEYWGQGTLVTVSS VL: not shown	> 5 ratio	> 5 ratio	> 5 ratio	no binding	no binding	no binding
